Experimental data as given in patent US20060104978A1, “Methods and compositions for PDGF-C activation and inhibition” (LUDWIG INSTITUTE FOR CANCER RESEARCH, priority 2003, published 2006).

Tests used:
PDGFR-α = biological target: T1, PDGFR-α (Homo sapiens, UniProt P16234); test: PDGFR-α tyrosine phosphorylation in PAE cells stably expressing PDGFR-α; type: cell-based; conditions: conditioned medium from transfected COS-1 cells applied to PAE cells, 120 min on ice
T1 construct: expressed in transfected cells
T1 sequence (P16234 24-1089): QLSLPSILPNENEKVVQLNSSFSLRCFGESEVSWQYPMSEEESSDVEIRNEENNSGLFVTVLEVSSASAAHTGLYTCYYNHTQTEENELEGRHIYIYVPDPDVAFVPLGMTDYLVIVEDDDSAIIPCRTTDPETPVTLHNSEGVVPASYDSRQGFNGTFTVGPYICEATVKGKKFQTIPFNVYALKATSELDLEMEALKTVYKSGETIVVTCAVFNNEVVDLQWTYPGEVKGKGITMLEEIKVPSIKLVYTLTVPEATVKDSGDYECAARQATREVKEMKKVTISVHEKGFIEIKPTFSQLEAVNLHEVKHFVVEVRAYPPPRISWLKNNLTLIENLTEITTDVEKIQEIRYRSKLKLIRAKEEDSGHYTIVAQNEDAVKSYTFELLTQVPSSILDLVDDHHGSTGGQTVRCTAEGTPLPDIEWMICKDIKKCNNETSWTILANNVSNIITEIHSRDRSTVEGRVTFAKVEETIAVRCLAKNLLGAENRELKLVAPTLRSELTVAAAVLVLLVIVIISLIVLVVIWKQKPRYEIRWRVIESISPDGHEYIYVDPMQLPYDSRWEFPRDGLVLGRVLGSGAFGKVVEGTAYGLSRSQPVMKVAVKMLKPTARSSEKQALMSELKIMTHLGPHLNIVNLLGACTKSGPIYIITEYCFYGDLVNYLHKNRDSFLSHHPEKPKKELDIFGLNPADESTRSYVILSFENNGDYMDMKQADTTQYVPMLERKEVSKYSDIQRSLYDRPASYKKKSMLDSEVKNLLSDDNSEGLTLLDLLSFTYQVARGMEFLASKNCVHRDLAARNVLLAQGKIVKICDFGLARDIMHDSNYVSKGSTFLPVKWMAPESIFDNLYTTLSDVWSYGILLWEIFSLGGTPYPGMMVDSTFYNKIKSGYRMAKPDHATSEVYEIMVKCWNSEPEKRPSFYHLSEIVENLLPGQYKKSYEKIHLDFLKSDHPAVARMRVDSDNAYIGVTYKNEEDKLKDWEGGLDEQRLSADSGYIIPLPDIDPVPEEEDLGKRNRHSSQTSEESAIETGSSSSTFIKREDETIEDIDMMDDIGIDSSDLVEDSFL
Procedure: It was verified that the growth factor domain in PDGF-CC released by tPA-mediated proteolysis is an efficient PDGFR-A ligand. Conditioned media from transfected COS-1 cells were applied onto porcine aortic endothelial (PAE) cells with stable expression of PDGFR-α (FIG. 5A).
To understand the structural requirements for receptor-binding and activation of PDGF-CC, the series of truncated mutants of PDGF-CC generated above were analysed for their ability to activate PDGFR-α in PAE cells. Conditioned media containing the truncated mutants of PDGF-CC were applied onto PAE cells, and the activation of the receptors was monitored by induction of receptor tyrosine phosphorylation (FIG. 6D).
To monitor growth factor-induced tyrosine phosphorylation of PDGFR-α, serum-starved PAE cells stably expressing human PDGFR-α were incubated for 120 min on ice with conditioned medium from COS-1 cells transfected with full-length PDGF-C in the absence or presence of tPA. Alternatively, primary wild-type and tPA-deficient fibroblasts were stimulated with 100 ng/ml activated PDGF-CC protein. The cells were lysed as described previously (Li et al, 2000) and PDGFR-α was immunoprecipitated using a specific antiserum (Eriksson et al, 1992). […] Tyrosinephosphorylated receptors were detected by immunoblotting using an antiphosphotyrosine antibody (PY99, Santa Cruz). […]

latent PDGF-CC = latent PDGF-CC (Homo sapiens, UniProt Q9NRA1); test: Cotransfection assay in COS-1 cells: protease plus full-length PDGF-C; type: cell-based; design: cotransfected with full-length PDGF-C (Li et al, 2000), full-length PDGF-D (Bergsten et al, 2001); expressed in transfected cells; host or cells: COS-1 cells; conditions: COS-1 conditioned medium, immunoblot, 22 kDa species under reducing conditions
Sequence of latent PDGF-CC (Q9NRA1 23-345): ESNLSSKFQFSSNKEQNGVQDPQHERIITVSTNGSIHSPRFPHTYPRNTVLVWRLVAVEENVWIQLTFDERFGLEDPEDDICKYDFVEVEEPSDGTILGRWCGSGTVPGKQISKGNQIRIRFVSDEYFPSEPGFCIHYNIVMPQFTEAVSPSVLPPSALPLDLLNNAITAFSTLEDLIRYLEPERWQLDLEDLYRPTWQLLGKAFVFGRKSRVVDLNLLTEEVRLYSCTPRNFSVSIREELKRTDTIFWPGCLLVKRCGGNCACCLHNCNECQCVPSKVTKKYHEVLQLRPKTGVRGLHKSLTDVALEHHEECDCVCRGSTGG
From the text: A cotransfection assay was established to identify serine proteases able to cleave and activate latent PDGF-CC. Expression plasmids encoding the relevant enzymes and full-length PDGF-C were cotransfected into COS-1 cells, and aliquots of the conditioned media from the transfectants were subjected to SDS-PAGE and immunoblotting using antibodies to the growth factor domain of PDGF-C. […] As a specificity control, the ability of tPA and NT to use full-length PDGF-DD as the substrate in the cotransfection assay was analysed. […] One difference in the latter results, as compared with the results from the cotransfection assay, was that purified tPA generated a second intermediate species of 32 kDa using latent PDGF-CC as the substrate. It is possible that this intermediate is the result of digestion by plasmin contamination in the tPA preparation, since the size of the fragment is similar to that of plasmincleaved PDGF-CC previously reported (Li et al, 2000). […]
To test the endogenous expression of PDGF-CC, subconfluent AG1523 cells and primary fibroblast cultures were cultured in serum-free DMEM overnight. […] In the case of the primary cultures, total protein concentration was measured and normalized (Bradford, 1976). […]

PDGFR-α activation (receptor tyrosine phosphorylation) (PDGFR-α): failed to induce receptor activation
Substance: tPA: tissue plasminogen activator, secreted serine protease; expressed, purified from human melanoma cells or recombinant
cleavage of latent PDGF-CC by the coexpressed protease (latent PDGF-CC): released the growth factor domain of latent PDGFCC
